Measurements as given in patent publication US20260116987A1 (Gilead, published 2026).
Positions count from the first letter of the chain named.

Assays:
[1] = molecular target: T1, Human CCR8 (C-C chemokine receptor type 8) expressed on CHO-S cells (human, UniProt P51685 1-355); experiment: flow cytometry (PE-A), human CCR8-expressing CHO-S cells against parental CHO-S cells; antibody concentration not given
T1 construct: also called huCCR8; human CCR8-expressing CHO-S cells

[2] = molecular target: T2, Human CCR4 expressed on CHO-S cells (human, UniProt P51679 1-360); experiment: flow cytometry (PE-A), human CCR4-expressing CHO-S cells against parental CHO-S cells; antibody concentration not given
T2 construct: whole, on cells; also called CCR4-expressing CHO-S cells
T2 sequence (looked up): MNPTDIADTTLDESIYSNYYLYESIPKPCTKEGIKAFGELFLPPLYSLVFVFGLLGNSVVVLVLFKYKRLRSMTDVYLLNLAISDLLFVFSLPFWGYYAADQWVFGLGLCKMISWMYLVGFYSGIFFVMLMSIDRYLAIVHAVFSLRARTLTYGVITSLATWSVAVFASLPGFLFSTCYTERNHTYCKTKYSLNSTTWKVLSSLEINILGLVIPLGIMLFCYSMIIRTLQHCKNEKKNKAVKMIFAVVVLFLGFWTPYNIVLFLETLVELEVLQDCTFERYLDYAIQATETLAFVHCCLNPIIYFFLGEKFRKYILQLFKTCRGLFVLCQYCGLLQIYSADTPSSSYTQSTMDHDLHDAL

[3] = molecular target: T3, CCR8-NT.MBP (CCR8 N-terminus peptide aa 1-35 fused with maltose binding protein); experiment: ForteBio Octet, antibody captured on AHC biosensors
[4] = molecular target: T1, Human CCR8 (C-C chemokine receptor type …); experiment: flow cytometry on CHO cells expressing CCR8, EC50 column
Protocol: (§1) CCR8 binding was determined using flow cytometry according to the same methods used in Example 4, Briefly, antibodies were screened for specific binding to human CCR8 by flow cytometry using human CCR8-overexpressing and parental CHO—S cell line. Antibodies specifically binding to human CCR8 were also tested for binding to CCR4 by flow cytometry.

[5] = molecular target: T3, CCR8-NT.MBP (CCR8 N-terminus peptide aa …); experiment: ForteBio Octet, antibody captured on AHC biosensors, CCR8-NT.MBP as analyte
[6] = molecular target: T2, Human CCR4 expressed on CHO-S cells; experiment: flow cytometry
[7] = molecular target: T1, Human CCR8 (C-C chemokine receptor type …); experiment: cell-based or functional assay
[8] = molecular target: T1, Human CCR8 (C-C chemokine receptor type …); experiment: cell-based or functional assay; remark: listed apart in the source
[9] = molecular target: T1, Human CCR8 (C-C chemokine receptor type …); experiment: cell-based or functional assay; remark: listed apart in the source
[10] = molecular target: T1, Human CCR8 (C-C chemokine receptor type …); experiment: KinExA, on-cell, human CCR8-expressing CHO-S cells
Protocol: (§2) Samples were gently rocked for 2.5 hours at 37° C. to achieve equilibrium.
(§3) To determine the rate of association (kₒₙ), the same immobilized biotinylated goat anti-human IgG-PMMA column was used as the capture reagent for kinetic experiments.
(§4) Data analysis was performed using KinExA Pro software at Sapidyne Instruments Inc to generate Kd and kₒₙ, The rate of dissociation (koff) was calculated based on the equation below.

[11] = molecular target: T1, Human CCR8 (C-C chemokine receptor type …); experiment: flow cytometry, human CCR8-overexpressing against parental CHO-S cells
Protocol: The first category of variant (single substitution mutation in the CDR H3) included variants in which each amino acid residue of the heavy chain CDR 3 (i.e., , CDR H3) was iteratively substituted with an alanine residue.
as §1

[12] = molecular target: T1, Human CCR8 (C-C chemokine receptor type …); experiment: KinExA, on-cell, human CCR8-expressing CHO-S cells; calculated from Kd and kon
Protocol: as §2, §3, §4

[13] = molecular target: T4, Human CCR8 on human CCR8-overexpression lipoparticles (human, UniProt P51685 1-355); experiment: sequential format ELISA on human CCR8-overexpression lipoparticles; competitor 1-K16
T4 sequence (P51685 whole entry): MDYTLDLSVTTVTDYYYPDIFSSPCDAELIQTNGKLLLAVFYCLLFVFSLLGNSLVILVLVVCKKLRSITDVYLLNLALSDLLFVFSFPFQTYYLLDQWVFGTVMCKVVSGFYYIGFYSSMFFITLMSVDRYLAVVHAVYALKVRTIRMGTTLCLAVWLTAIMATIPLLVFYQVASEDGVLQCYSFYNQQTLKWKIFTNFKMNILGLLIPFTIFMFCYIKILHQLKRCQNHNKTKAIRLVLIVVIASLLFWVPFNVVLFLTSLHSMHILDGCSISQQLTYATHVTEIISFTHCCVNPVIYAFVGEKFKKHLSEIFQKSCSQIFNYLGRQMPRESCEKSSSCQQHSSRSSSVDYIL

[14] = molecular target: T4, Human CCR8 on human CCR8-overexpression …; experiment: sequential format ELISA on human CCR8-overexpression lipoparticles; competitor 1-K17
[15] = molecular target: T4, Human CCR8 on human CCR8-overexpression …; experiment: sequential format ELISA on human CCR8-overexpression lipoparticles; competitor 6-B09
[16] = molecular target: T4, Human CCR8 on human CCR8-overexpression …; experiment: sequential format ELISA on human CCR8-overexpression lipoparticles; competitor 7-B16
[17] = molecular target: T4, Human CCR8 on human CCR8-overexpression …; experiment: sequential format ELISA on human CCR8-overexpression lipoparticles; competitor 19-O07
[18] = molecular target: T1, Human CCR8 (C-C chemokine receptor type …); experiment: flow cytometry epitope binning, tandem format, human CCR8-overexpressing cells; competitor 1-K16
Protocol: (§5) A subset of antibodies against human CCR8 were epitope binned using flow cytometry method in tandem format. Briefly, one set of antibodies was biotinylated. Human CCR8-overexpressing cells were incubated at 4° C., with the non-biotinylated antibodies at 10 μg/mL for 1 hour, then without washing the biotinylated antibodies were added at 10 μg/mL. After a further 1-hour incubation, cells were washed three times and then stained with streptavidin-phycoerythrin (PE-strep) secondary antibody for 30 minutes. Binding competition was determined by detecting PE by flow cytometry. The response values were normalized as the % of the maximum binding of the individual antibody.

[19] = molecular target: T1, Human CCR8 (C-C chemokine receptor type …); experiment: flow cytometry epitope binning, tandem format, human CCR8-overexpressing cells; competitor 1-K17
Protocol: as §5

[20] = molecular target: T1, Human CCR8 (C-C chemokine receptor type …); experiment: flow cytometry epitope binning, tandem format, human CCR8-overexpressing cells; competitor 6-B09
Protocol: as §5

[21] = molecular target: T1, Human CCR8 (C-C chemokine receptor type …); experiment: flow cytometry epitope binning, tandem format, human CCR8-overexpressing cells; competitor 7-B16
Protocol: as §5

[22] = molecular target: T1, Human CCR8 (C-C chemokine receptor type …); experiment: flow cytometry epitope binning, tandem format, human CCR8-overexpressing cells; competitor 19-O07
Protocol: as §5

T1 sequence (P51685 whole entry): as above

B1: 7-B16 (mouse hybridoma antibody) (antibody, mouse IgG1, kappa)
heavy: EVQLVESGGGLVQPKGSLKLSCAASGFTFNTYAMNWVRQAPGKGLEWVARIRSKSNNYATYYADSVKDRFTISRDDSQSMLYLQMNNLKTEDTAMYYCVRGLLRYRFFDVWGAGTTVTVSSAKTTPPSVYPLAPGSAAQTNSMVTLGCLVKGYFPEPVTVTWNSGSLSSGVHTFPAVLESDLYTLSSSVTVPSSPRPSETVTCNVAHPASSTKVDKKIVPRDCGCKPCICTVPEVSSVFIFPPKPKDVLTITLTPKVTCVVVDISKDDPEVQFSWFVDDVEVHTAQTQPREEQFNSTFRSVSELPIMHQDWLNGKEFKCRVNSAAFPAPIEKTISKTKGRPKAPQVYTIPPPKEQMAKDKVSLTCMITDFFPEDITVEWQWNGQPAENYKNTQPIMNTNGSYFVYSKLNVQKSNWEAGNTFTCSVLHEGLHNHHTEKSLSHSPG
light: DIVMTQAEPSVPVTPGESISISCRSSKSLLHSNGNTYLYWFLQRPGQSPQLLIYRMSNLASGVPDRFSGSGSGTAFTLRISRVEAEDVGVYYCMQHLEYPFTFGGGTKLEIKRADAAPTVSIFPPSSEQLTSGGASVVCFLNNFYPKDINVKWKIDGSERQNGVLNSWTDQDSKDSTYSMSSTLTLTKDEYERHNSYTCEATHKTSTSPIVKSFNRNEC
B1: binds [1]; no binding [2].

B2: 7B16-H3.001 (CDR H3 swapped mutant of 7-B16) (antibody, V domains shown)
VH: EVQLVESGGGLVQPKGSLKLSCAASGFTFNTYAMNWVRQAPGKGLEWVARIRSKSNNYATYYADSVKDRFTISRDDSQSMLYLQMNNLKTEDTAMYYCTRYYYYYGMDVWGAGTTVTVSS
VL: DIVMTQAEPSVPVTPGESISISCRSSKSLLHSNGNTYLYWFLQRPGQSPQLLIYRMSNLASGVPDRFSGSGSGTAFTLRISRVEAEDVGVYYCMQHLEYPFTFGGGTKLEIKR
notes: also called CDR swapped variant H3
In the case of B2, the binding result [3] is reported as “no binding (tested: 300 nM CCR8-NT.MBP)”, the binding result [4] is reported as “no binding” and the “Octet Response (nm)” value [5] is reported as 0.0093 nm.

B3: 7-B16 chimera (human IgG1) (antibody)
heavy: not shown
light: DIVMTQAEPSVPVTPGESISISCRSSKSLLHSNGNTYLYWFLQRPGQSPQLLIYRMSNLASGVPDRFSGSGSGTAFTLRISRVEAEDVGVYYCMQHLEYPFTFGGGTKLEIKRTVAAPSVFIFPPSDEQLKSGTASVVCLLNNFYPREAKVQWKVDNALQSGNSQESVTEQDSKDSTYSLSSTLTLSKADYEKHKVYACEVTHQGLSSPVTKSFNRGEC
notes: also called 7-B16.hG1 Chimera; Wild type 7-B16
In the case of B3, the binding result [6] is reported as “no binding”, the “IC50, antagonist activity in DiscoverX PathHunter beta-arrestin assay with 13.7 nM human CCL1” value [7] is reported as 0.09 µg/mL and the “EC50 of ADCC function (Promega ADCC reporter bioassay)” value [8] is reported as 0.00691 µg/mL. The “ADCC (Fold Induction)” value [9] was 23.3 fold, the Kd [10] was 0.22 nM and the kon [10] was 6.08e+06 M⁻¹ s⁻¹. The “Flow (fold over parent)” value [11] was 10 fold, the koff [12] was 0.00134 s⁻¹ and the “ELISA epitope binning signal” value [13] was 0.101. The “ELISA epitope binning signal” value [14] was 0.771, the “ELISA epitope binning signal” value [15] was 1.04 and the “ELISA epitope binning signal” value [16] was 0.655. For the same binder, the “ELISA epitope binning signal” value [17] was 0.437, the “% of the maximum binding” value [18] was 14% and the “% of the maximum binding” value [19] was 18%. The “% of the maximum binding” value [20] was 175%, the “% of the maximum binding” value [21] was 41% and the “% of the maximum binding” value [22] was 148%.

B4: 7B16-L1.001 (CDR L1 swapped mutant of 7-B16) (antibody, V domains shown)
VH: EVQLVESGGGLVQPKGSLKLSCAASGFTFNTYAMNWVRQAPGKGLEWVARIRSKSNNYATYYADSVKDRFTISRDDSQSMLYLQMNNLKTEDTAMYYCVRGLLRYRFFDVWGAGTTVTVSS
VL: B2 VL with K27Q, N35Y, T36N, Y39D
notes: also called CDR swapped variant L1
For B4, the binding result [3] was “no binding (tested: 300 nM CCR8-NT.MBP)”, the binding result [4] was “no binding” and the “Octet Response (nm)” value [5] was 0.0039 nm.
